Assay results as given in the supplement of paper PMC10724198.
± gives the standard deviation of the averaged measurements.

How the values were obtained:
Saccharomyces cerevisiae [1] = experiment: protein stability index of tFT-peptide fusion (C-terminal peptide) (PSI (0-1 scale)); higher = more stable (slower turnover); settings: genetic background: wild type; temperature: 30 C
Saccharomyces cerevisiae [2] = experiment: as above
Procedure: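 MPS profiling in S. cerevisiae of the tFT-X12 degron library: putative degron peptides plus stable controls, 12 aa, fused to the C-terminus of a sfGFP-mCherry timer. Cells are FACS-sorted into 8 mCherry/sfGFP bins and deep-sequenced. PSI runs from 0 (unstable) to 1 (stable). Backgrounds are wild type, das1Δ and doa10Δ at 30 °C, and wild type, das1Δ, cdc34-1 and cdc53-1 at 37 °C; 2-3 technical replicates each.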

[3] = genetic background: cdc34-1, temperature: 37 C
[4] = genetic background: cdc53-1, temperature: 37 C
[5] = genetic background: das1 deletion, temperature: 30 C
[6] = genetic background: das1 deletion, temperature: 37 C
[7] = genetic background: doa10 deletion, temperature: 30 C
[8] = genetic background: wild type, temperature: 30 C
[9] = genetic background: wild type, temperature: 37 C
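Further: PSI is a weighted mean of sequencing reads over stability bins, variants kept only with over 10 reads, mCherry proximal and sfGFP distal, peptide attached via GGGS linker.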

ESFIKFALYIVN
protein stability index (Saccharomyces cerevisiae [1]): 0.419 ± 0.0082 | protein stability index (Saccharomyces cerevisiae [2]; [3]): 0.557 ± 0.052 | protein stability index (Saccharomyces cerevisiae [2]; [4]): 0.604 ± 0.0067 | protein stability index (Saccharomyces cerevisiae [2]; [5]): 0.435 ± 0.023 | protein stability index (Saccharomyces cerevisiae [2]; [6]): 0.621 ± 0.014 | protein stability index (Saccharomyces cerevisiae [2]; [7]): 0.348 ± 0.013 | protein stability index (Saccharomyces cerevisiae [2]; [8]): 0.358 ± 0.036 | protein stability index (Saccharomyces cerevisiae [2]; [9]): 0.5099 ± 0.00084

LMLISFLFLSLL
protein stability index (Saccharomyces cerevisiae [1]): 0.466 ± 0.056 | protein stability index (Saccharomyces cerevisiae [2]; [3]): 0.487 ± 0.053 | protein stability index (Saccharomyces cerevisiae [2]; [4]): 0.461 ± 0.021 | protein stability index (Saccharomyces cerevisiae [2]; [5]): 0.448 ± 0.023 | protein stability index (Saccharomyces cerevisiae [2]; [6]): 0.529 ± 0.031 | protein stability index (Saccharomyces cerevisiae [2]; [7]): 0.568 ± 0.031 | protein stability index (Saccharomyces cerevisiae [2]; [8]): 0.397 ± 0.023 | protein stability index (Saccharomyces cerevisiae [2]; [9]): 0.48698 ± 5.5e-05

PLATSLIGLFVV
protein stability index (Saccharomyces cerevisiae [1]): 0.433 ± 0.039 | protein stability index (Saccharomyces cerevisiae [2]; [3]): 0.663 ± 0.098 | protein stability index (Saccharomyces cerevisiae [2]; [4]): 0.716 ± 0.013 | protein stability index (Saccharomyces cerevisiae [2]; [5]): 0.522 ± 0.028 | protein stability index (Saccharomyces cerevisiae [2]; [6]): 0.661 ± 0.021 | protein stability index (Saccharomyces cerevisiae [2]; [7]): 0.273 ± 0.018 | protein stability index (Saccharomyces cerevisiae [2]; [8]): 0.298 ± 0.032 | protein stability index (Saccharomyces cerevisiae [2]; [9]): 0.4673 ± 0.0014

FCSLLVLLFFGV
protein stability index (Saccharomyces cerevisiae [1]): 0.39365 ± 4e-05 | protein stability index (Saccharomyces cerevisiae [2]; [3]): 0.395 ± 0.042 | protein stability index (Saccharomyces cerevisiae [2]; [4]): 0.4792 ± 0.0038 | protein stability index (Saccharomyces cerevisiae [2]; [5]): 0.334 ± 0.018 | protein stability index (Saccharomyces cerevisiae [2]; [6]): 0.473 ± 0.0052 | protein stability index (Saccharomyces cerevisiae [2]; [7]): 0.323 ± 0.025 | protein stability index (Saccharomyces cerevisiae [2]; [8]): 0.337 ± 0.022 | protein stability index (Saccharomyces cerevisiae [2]; [9]): 0.466 ± 0.013

LVDPFAALRHVV
protein stability index (Saccharomyces cerevisiae [1]): 0.246 ± 0.0088 | protein stability index (Saccharomyces cerevisiae [2]; [3]): 0.624 ± 0.026 | protein stability index (Saccharomyces cerevisiae [2]; [4]): 0.768 ± 0.0078 | protein stability index (Saccharomyces cerevisiae [2]; [5]): 0.709 ± 0.016 | protein stability index (Saccharomyces cerevisiae [2]; [6]): 0.71 ± 0.013 | protein stability index (Saccharomyces cerevisiae [2]; [7]): 0.15 ± 0.014 | protein stability index (Saccharomyces cerevisiae [2]; [8]): 0.173 ± 0.024 | protein stability index (Saccharomyces cerevisiae [2]; [9]): 0.3825 ± 0.0015

VSLHVFVFLLAS
protein stability index (Saccharomyces cerevisiae [1]): 0.309 ± 0.043 | protein stability index (Saccharomyces cerevisiae [2]; [3]): 0.255 ± 0.02 | protein stability index (Saccharomyces cerevisiae [2]; [4]): 0.347 ± 0.0036 | protein stability index (Saccharomyces cerevisiae [2]; [5]): 0.249 ± 0.025 | protein stability index (Saccharomyces cerevisiae [2]; [6]): 0.4219 ± 0.0024 | protein stability index (Saccharomyces cerevisiae [2]; [7]): 0.189 ± 0.012 | protein stability index (Saccharomyces cerevisiae [2]; [8]): 0.239 ± 0.027 | protein stability index (Saccharomyces cerevisiae [2]; [9]): 0.378 ± 0.0044

SFSFRPCLLLFF
protein stability index (Saccharomyces cerevisiae [1]): 0.336 ± 0.099 | protein stability index (Saccharomyces cerevisiae [2]; [3]): 0.32771 ± 1.1e-05 | protein stability index (Saccharomyces cerevisiae [2]; [4]): 0.355 ± 0.0074 | protein stability index (Saccharomyces cerevisiae [2]; [5]): 0.357 ± 0.036 | protein stability index (Saccharomyces cerevisiae [2]; [6]): 0.51 ± 0.0096 | protein stability index (Saccharomyces cerevisiae [2]; [7]): 0.38211 ± 0.00035 | protein stability index (Saccharomyces cerevisiae [2]; [8]): 0.283 ± 0.033 | protein stability index (Saccharomyces cerevisiae [2]; [9]): 0.417 ± 0.021

RNDCAYHVLQIV
protein stability index (Saccharomyces cerevisiae [1]): 0.228 ± 0.0084 | protein stability index (Saccharomyces cerevisiae [2]; [3]): 0.607 ± 0.016 | protein stability index (Saccharomyces cerevisiae [2]; [4]): 0.722 ± 0.054 | protein stability index (Saccharomyces cerevisiae [2]; [5]): 0.646 ± 0.015 | protein stability index (Saccharomyces cerevisiae [2]; [6]): 0.7115 ± 0.0031 | protein stability index (Saccharomyces cerevisiae [2]; [7]): 0.181 ± 0.0022 | protein stability index (Saccharomyces cerevisiae [2]; [8]): 0.202 ± 0.035 | protein stability index (Saccharomyces cerevisiae [2]; [9]): 0.381 ± 0.0042

YPFSLVLGVFAF
protein stability index (Saccharomyces cerevisiae [1]): 0.405 ± 0.033 | protein stability index (Saccharomyces cerevisiae [2]; [3]): 0.367 ± 0.02 | protein stability index (Saccharomyces cerevisiae [2]; [4]): 0.389 ± 0.022 | protein stability index (Saccharomyces cerevisiae [2]; [5]): 0.298 ± 0.028 | protein stability index (Saccharomyces cerevisiae [2]; [6]): 0.456 ± 0.0094 | protein stability index (Saccharomyces cerevisiae [2]; [7]): 0.285 ± 0.01 | protein stability index (Saccharomyces cerevisiae [2]; [8]): 0.325 ± 0.0062 | protein stability index (Saccharomyces cerevisiae [2]; [9]): 0.4104 ± 0.0034

VIFFEFFLSFGE
protein stability index (Saccharomyces cerevisiae [1]): 0.413 ± 0.0071 | protein stability index (Saccharomyces cerevisiae [2]; [3]): 0.267 ± 0.0089 | protein stability index (Saccharomyces cerevisiae [2]; [4]): 0.481 ± 0.024 | protein stability index (Saccharomyces cerevisiae [2]; [5]): 0.281 ± 0.026 | protein stability index (Saccharomyces cerevisiae [2]; [6]): 0.452 ± 0.026 | protein stability index (Saccharomyces cerevisiae [2]; [7]): 0.253 ± 0.033 | protein stability index (Saccharomyces cerevisiae [2]; [8]): 0.32 ± 0.025 | protein stability index (Saccharomyces cerevisiae [2]; [9]): 0.433 ± 0.0069

MGVTVRVEGIRA
protein stability index (Saccharomyces cerevisiae [1]): 0.369 ± 0.084 | protein stability index (Saccharomyces cerevisiae [2]; [3]): 0.52 ± 0.036 | protein stability index (Saccharomyces cerevisiae [2]; [4]): 0.517 ± 0.013 | protein stability index (Saccharomyces cerevisiae [2]; [5]): 0.368 ± 0.03 | protein stability index (Saccharomyces cerevisiae [2]; [6]): 0.55332 ± 0.0004 | protein stability index (Saccharomyces cerevisiae [2]; [7]): 0.3374 ± 0.00071 | protein stability index (Saccharomyces cerevisiae [2]; [8]): 0.383 ± 0.013 | protein stability index (Saccharomyces cerevisiae [2]; [9]): 0.537 ± 0.015

GAVRRWGGVSFV
protein stability index (Saccharomyces cerevisiae [1]): 0.259 ± 0.068 | protein stability index (Saccharomyces cerevisiae [2]; [3]): 0.626 ± 0.041 | protein stability index (Saccharomyces cerevisiae [2]; [4]): 0.707 ± 0.026 | protein stability index (Saccharomyces cerevisiae [2]; [5]): 0.643 ± 0.011 | protein stability index (Saccharomyces cerevisiae [2]; [6]): 0.707 ± 0.032 | protein stability index (Saccharomyces cerevisiae [2]; [7]): 0.662 ± 0.028 | protein stability index (Saccharomyces cerevisiae [2]; [8]): 0.664 ± 0.0068 | protein stability index (Saccharomyces cerevisiae [2]; [9]): 0.679 ± 0.015

VIRIRLSCSVDV
protein stability index (Saccharomyces cerevisiae [1]): 0.367 ± 0.026 | protein stability index (Saccharomyces cerevisiae [2]; [3]): 0.326 ± 0.04 | protein stability index (Saccharomyces cerevisiae [2]; [4]): 0.42 ± 0.047 | protein stability index (Saccharomyces cerevisiae [2]; [5]): 0.323 ± 0.022 | protein stability index (Saccharomyces cerevisiae [2]; [6]): 0.411 ± 0.0063 | protein stability index (Saccharomyces cerevisiae [2]; [7]): 0.313 ± 0.023 | protein stability index (Saccharomyces cerevisiae [2]; [8]): 0.322 ± 0.021 | protein stability index (Saccharomyces cerevisiae [2]; [9]): 0.387 ± 0.013

HFLLAFMLCFGQ
protein stability index (Saccharomyces cerevisiae [1]): 0.466 ± 0.044 | protein stability index (Saccharomyces cerevisiae [2]; [3]): 0.4512 ± 0.0045 | protein stability index (Saccharomyces cerevisiae [2]; [4]): 0.476 ± 0.0097 | protein stability index (Saccharomyces cerevisiae [2]; [5]): 0.359 ± 0.039 | protein stability index (Saccharomyces cerevisiae [2]; [6]): 0.504 ± 0.0076 | protein stability index (Saccharomyces cerevisiae [2]; [7]): 0.336 ± 0.011 | protein stability index (Saccharomyces cerevisiae [2]; [8]): 0.356 ± 0.021 | protein stability index (Saccharomyces cerevisiae [2]; [9]): 0.476 ± 0.024

FKWVSRIRLLDA
protein stability index (Saccharomyces cerevisiae [1]): 0.316 ± 0.027 | protein stability index (Saccharomyces cerevisiae [2]; [3]): 0.485 ± 0.014 | protein stability index (Saccharomyces cerevisiae [2]; [4]): 0.566 ± 0.049 | protein stability index (Saccharomyces cerevisiae [2]; [5]): 0.51 ± 0.023 | protein stability index (Saccharomyces cerevisiae [2]; [6]): 0.483 ± 0.0055 | protein stability index (Saccharomyces cerevisiae [2]; [7]): 0.24 ± 0.028 | protein stability index (Saccharomyces cerevisiae [2]; [8]): 0.246 ± 0.016 | protein stability index (Saccharomyces cerevisiae [2]; [9]): 0.411 ± 0.017

FYIRFYVYSWLF
protein stability index (Saccharomyces cerevisiae [1]): 0.3604 ± 0.0023 | protein stability index (Saccharomyces cerevisiae [2]; [3]): 0.376 ± 0.0093 | protein stability index (Saccharomyces cerevisiae [2]; [4]): 0.441 ± 0.011 | protein stability index (Saccharomyces cerevisiae [2]; [5]): 0.304 ± 0.051 | protein stability index (Saccharomyces cerevisiae [2]; [6]): 0.492 ± 0.0077 | protein stability index (Saccharomyces cerevisiae [2]; [7]): 0.278 ± 0.0083 | protein stability index (Saccharomyces cerevisiae [2]; [8]): 0.303 ± 0.01 | protein stability index (Saccharomyces cerevisiae [2]; [9]): 0.46 ± 0.0047

RSNLSKSWHRIG
protein stability index (Saccharomyces cerevisiae [1]): 0.207 ± 0.038 | protein stability index (Saccharomyces cerevisiae [2]; [3]): 0.538 ± 0.065 | protein stability index (Saccharomyces cerevisiae [2]; [4]): 0.689 ± 0.014 | protein stability index (Saccharomyces cerevisiae [2]; [5]): 0.645 ± 0.028 | protein stability index (Saccharomyces cerevisiae [2]; [6]): 0.743 ± 0.015 | protein stability index (Saccharomyces cerevisiae [2]; [7]): 0.101 ± 0.011 | protein stability index (Saccharomyces cerevisiae [2]; [8]): 0.11 ± 0.029 | protein stability index (Saccharomyces cerevisiae [2]; [9]): 0.212 ± 0.074

ERNERKYKIKIT
protein stability index (Saccharomyces cerevisiae [1]): 0.374 ± 0.041 | protein stability index (Saccharomyces cerevisiae [2]; [3]): 0.699 ± 0.018 | protein stability index (Saccharomyces cerevisiae [2]; [4]): 0.724 ± 0.035 | protein stability index (Saccharomyces cerevisiae [2]; [5]): 0.609 ± 0.042 | protein stability index (Saccharomyces cerevisiae [2]; [6]): 0.715 ± 0.026 | protein stability index (Saccharomyces cerevisiae [2]; [7]): 0.179 ± 0.013 | protein stability index (Saccharomyces cerevisiae [2]; [8]): 0.239 ± 0.037 | protein stability index (Saccharomyces cerevisiae [2]; [9]): 0.461 ± 0.034

FFLVILSWWVGE
protein stability index (Saccharomyces cerevisiae [1]): 0.242 ± 0.017 | protein stability index (Saccharomyces cerevisiae [2]; [3]): 0.182 ± 0.023 | protein stability index (Saccharomyces cerevisiae [2]; [4]): 0.225 ± 0.056 | protein stability index (Saccharomyces cerevisiae [2]; [5]): 0.197 ± 0.036 | protein stability index (Saccharomyces cerevisiae [2]; [6]): 0.345 ± 0.028 | protein stability index (Saccharomyces cerevisiae [2]; [7]): 0.185 ± 0.0019 | protein stability index (Saccharomyces cerevisiae [2]; [8]): 0.205 ± 0.052 | protein stability index (Saccharomyces cerevisiae [2]; [9]): 0.31 ± 0.017

TGRLFVSLRVWY
protein stability index (Saccharomyces cerevisiae [1]): 0.437 ± 0.038 | protein stability index (Saccharomyces cerevisiae [2]; [3]): 0.321 ± 0.0046 | protein stability index (Saccharomyces cerevisiae [2]; [4]): 0.375 ± 0.055 | protein stability index (Saccharomyces cerevisiae [2]; [5]): 0.295 ± 0.035 | protein stability index (Saccharomyces cerevisiae [2]; [6]): 0.467 ± 0.0072 | protein stability index (Saccharomyces cerevisiae [2]; [7]): 0.302 ± 0.015 | protein stability index (Saccharomyces cerevisiae [2]; [8]): 0.305 ± 0.006 | protein stability index (Saccharomyces cerevisiae [2]; [9]): 0.442 ± 0.0058
